What all share (conditions): both partners purified
Assay [1] concerns the target T1, recombinant KLHL37-His protein (UniProt O14682 1-589).
T1 construct: Kelch-like protein 37 (KLHL37), also known as ectodermal-neural cortex 1 (ENC1); also called rKLHL37-His; KLHL37-His (6x); source: E. coli BL21, purified (HisTrap HP)
T1 sequence (looked up): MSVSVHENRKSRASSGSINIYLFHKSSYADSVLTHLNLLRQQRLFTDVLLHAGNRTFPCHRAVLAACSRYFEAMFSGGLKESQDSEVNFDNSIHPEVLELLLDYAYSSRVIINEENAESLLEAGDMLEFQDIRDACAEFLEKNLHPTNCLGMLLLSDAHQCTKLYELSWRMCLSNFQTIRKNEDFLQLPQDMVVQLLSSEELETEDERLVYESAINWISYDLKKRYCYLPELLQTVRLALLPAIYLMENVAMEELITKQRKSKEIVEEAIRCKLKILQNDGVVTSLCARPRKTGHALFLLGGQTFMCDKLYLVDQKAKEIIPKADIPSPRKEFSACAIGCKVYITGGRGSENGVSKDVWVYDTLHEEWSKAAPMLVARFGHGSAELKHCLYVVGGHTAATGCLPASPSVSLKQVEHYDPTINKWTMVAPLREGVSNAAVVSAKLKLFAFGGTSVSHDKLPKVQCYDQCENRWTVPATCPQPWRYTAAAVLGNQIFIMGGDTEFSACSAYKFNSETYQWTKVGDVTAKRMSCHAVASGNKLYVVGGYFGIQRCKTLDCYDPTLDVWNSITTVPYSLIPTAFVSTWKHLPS
Nature of the assay: pull-down; in vitro co-IP: recombinant KLHL37-His incubated with GST fusion protein at RT (25°C) for 3 hours, then GST resin (preblocked with 1% BSA); IP: GST, IB: KLHL37.

Assay [2] addresses T2, KLHL37-His recombinant protein (UniProt O14682 1-589).
T2 construct: Kelch-like protein 37 (KLHL37, ENC1); the methods name only KLHL37-His; also called recombinant KLHL37; KLHL37-His (6×); source: E. coli BL21, purified (HisTrap HP)
T2 sequence (looked up): T1 sequence (looked up)
Nature of the assay: MST; GFP–N-Myc or GFP–C-Myc at 200 nM in PBS-T (0.05% Tween 20); KLHL37-His serially diluted 16 times from 27.3 nM (N-Myc) or 7 μM (C-Myc); mixed 1:1; EC50 fitted.

Assay [3] has as its target T2, KLHL37-His recombinant protein. Briefly: pull-down; in vitro co-IP: recombinant KLHL37-His incubated with GST or GST–N-Myc at RT (25°C) for 3 hours, then GST resin preblocked with 1% BSA.

The results in this text go back to paper PMC12259267, “Disruption of the KLHL37–N-Myc complex restores N-Myc degradation and arrests neuroblastoma growth in mouse models” (The Journal of Clinical Investigation, 2025).

B1: recombinant GST-N-Myc protein (natural protein, UniProt P04198 1-464, looked up)
chain: MPSCSTSTMPGMICKNPDLEFDSLQPCFYPDEDDFYFGGPDSTPPGEDIWKKFELLPTPPLSPSRGFAEHSSEPPSWVTEMLLENELWGSPAEEDAFGLGGLGGLTPNPVILQDCMWSGFSAREKLERAVSEKLQHGRGPPTAGSTAQSPGAGAASPAGRGHGGAAGAGRAGAALPAELAHPAAECVDPAVVFPFPVNKREPAPVPAAPASAPAAGPAVASGAGIAAPAGAPGVAPPRPGGRQTSGGDHKALSTSGEDTLSDSDDEDDEEEDEEEEIDVVTVEKRRSSSNTKAVTTFTITVRPKNAALGPGRAQSSELILKRCLPIHQQHNYAAPSPYVESEDAPPQKKIKSEASPRPLKSVIPPKAKSLSPRNSDSEDSERRRNHNILERQRRNDLRSSFLTLRDHVPELVKNEKAAKVVILKKATEYVHSLQAEEHQLLLEKEKLQARQQQLLKKIEHARTC
notes: N-Myc; also called rGST-N-Myc; source: SF9 insect cells (baculovirus), purified (GST TRAP HP); not shown: GST, N-terminal, kept
On to B1, for which the binding result in assay [1] was “binds”.

B2: recombinant GFP–N-Myc (natural protein, UniProt P04198 1-464, looked up)
chain: B1 chain
notes: N-Myc; also called rGFP–N-Myc; source: E. coli BL21
Consider B2, for which the binding result in assay [2] was “binds”.

B3: GST–N-Myc recombinant protein (natural protein, UniProt P04198 1-464, looked up)
chain: B1 chain
notes: N-Myc; source: SF9 insect cells (baculovirus), purified (GST TRAP HP); not shown: GST, N-terminal, kept
As to B3, in assay [3], the binding result was “binds”.
